This data set concerns Saccharomyces cerevisiae. The experiment in a line: protein stability index of tFT-peptide fusion (C-terminal peptide) (PSI (0-1 scale)); higher = more stable (slower turnover). As to conditions: temperature: 30 C. As to the method: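 MPS profiling in S. cerevisiae of the yeast C-terminome library: the last 12 aa of each annotated ORF are fused to the C-terminus of a sfGFP-mCherry timer, after a GGGS linker. Cells are FACS-sorted into 8 mCherry/sfGFP bins and deep-sequenced. PSI runs from 0 (unstable) to 1 (stable); wild type and das1Δ backgrounds, two technical replicates each.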

Where [1] appears, read: genetic background: das1 deletion.

± gives the standard deviation of the averaged measurements.

With HGHHNSSTSGHK [PBP1 C-terminal 12 aa], the protein stability index runs as follows: under setting [1], 0.694 ± 0.015; (genetic background: wild type) 0.714 ± 0.0077.
On to “HKTNLTRGSFYS [YIR020W-A C-terminal 12 aa]”, for which the protein stability index came to 0.70525 ± 6.6e-05 under setting [1] and 0.708 ± 0.041 (genetic background: wild type).
On the same counts, the results for HLGDPLWNFSVE [TMA20 C-terminal 12 aa] are 0.7244 ± 0.0043 and 0.707 ± 0.01.
The corresponding values for HLNESVYSKPLP [YIL028W C-terminal 12 aa] are 0.6938 ± 0.0028 and 0.678 ± 0.065.
In the case of HPNIDALLKKTE [MST27 C-terminal 12 aa], the protein stability index runs as follows: under setting [1], 0.686 ± 0.014; (genetic background: wild type) 0.654 ± 0.035.
Consider HSNTLKRKIEQV [PUS4 C-terminal 12 aa], for which the protein stability index under setting [1] turned out to be 0.7252 ± 0.0013 and the protein stability index (genetic background: wild type) turned out to be 0.697 ± 0.012.
Regarding HTRRAFLIPFVF [TSC13 C-terminal 12 aa], the protein stability index came to 0.547 ± 0.02 under setting [1] and 0.241 ± 0.011 (genetic background: wild type).
On the same counts, the results for HVAPYAIIPFII [DFG10 C-terminal 12 aa] are 0.724 ± 0.0075 and 0.151 ± 0.024.
The corresponding values for HWRSVYDEFGEL [APE1 C-terminal 12 aa] are 0.721 ± 0.01 and 0.701 ± 0.024.
As to IAEEIISMFAEN [YNR064C C-terminal 12 aa], the protein stability index was 0.692 ± 0.031 under setting [1] and 0.723 ± 0.016 (genetic background: wild type).
Consider IALAEHRVERSN [CLB3 C-terminal 12 aa], for which the protein stability index was 0.718 ± 0.05 under setting [1] and 0.701 ± 0.033 (genetic background: wild type).
Turning to IAPIRIYKITKQ [EFM3 C-terminal 12 aa], the protein stability index runs as follows: under setting [1], 0.686 ± 0.028; (genetic background: wild type) 0.677 ± 0.039.
On the same counts, the results for IAREIFHNVTNF [SEC39 C-terminal 12 aa] are 0.724 ± 0.025 and 0.695 ± 0.037.
Take IARLEKLLSGGV [LEA1 C-terminal 12 aa]: the protein stability index reads like this: under setting [1], 0.692 ± 0.017; (genetic background: wild type) 0.686 ± 0.0076.
On to IAVNYGQKDLIE [BRR1 C-terminal 12 aa], for which the protein stability index amounted to 0.697 ± 0.033 under setting [1] and 0.669 ± 0.014 (genetic background: wild type).
Consider IDLFRDAYNHEN [UPS2 C-terminal 12 aa], for which the protein stability index stood at 0.7353 ± 0.0064 under setting [1] and 0.70705 ± 3.4e-05 (genetic background: wild type).
The corresponding values for IDMLKMSNAEEY [YLR012C C-terminal 12 aa] are 0.672 ± 0.015 and 0.6642 ± 0.0041.
In the case of IEIVKDAKRKGY [MRP21 C-terminal 12 aa], the protein stability index runs as follows: under setting [1], 0.70154 ± 7.3e-05; (genetic background: wild type) 0.674 ± 0.017.
For IEKNHAKFTDLT [CSH1 C-terminal 12 aa], the protein stability index is 0.7074 ± 0.0034 under setting [1] and 0.731 ± 0.017 (genetic background: wild type).
For the sequence IFFILYTLFKLF [SFT1 C-terminal 12 aa], the protein stability index stood at 0.422 ± 0.0091 under setting [1] and 0.199 ± 0.01 (genetic background: wild type).
Take IFLNDVYFNLMV [YPR126C C-terminal 12 aa]: the protein stability index is, setting by setting: under setting [1], 0.728 ± 0.016; (genetic background: wild type) 0.686 ± 0.012.
The corresponding values for IFNATASNPFGF [SLA1 C-terminal 12 aa] are 0.738 ± 0.029 and 0.747 ± 0.045.
On the same counts, the results for IFVFFVIWVLVN [SED5 C-terminal 12 aa] are 0.209 ± 0.019 and 0.211 ± 0.015.
Consider IGEFADNVMPLA [PRY2 C-terminal 12 aa], for which the protein stability index is, setting by setting: under setting [1], 0.709 ± 0.026; (genetic background: wild type) 0.712 ± 0.0076.
On the same counts, the results for IGISPSQNKWEK [REX3 C-terminal 12 aa] are 0.728 ± 0.02 and 0.7285 ± 0.0071.
Regarding IIRDFLIEKGFI [YNL320W C-terminal 12 aa], the protein stability index amounted to 0.731 ± 0.024 under setting [1] and 0.667 ± 0.009 (genetic background: wild type).
On the same counts, the results for IKALQDSLFKDV [NUP188 C-terminal 12 aa] are 0.718 ± 0.013 and 0.705 ± 0.042.
The corresponding values for “IKKGTPNNIAFL [YJL197C-A C-terminal 12 aa]” are 0.7027 ± 0.0063 and 0.704 ± 0.017.
The corresponding values for “IKKRKVQNRAMS [YOL038C-A C-terminal 12 aa]” are 0.701 ± 0.017 and 0.73 ± 0.0083.
For the sequence IKTDSVHELLKK [MFM1 C-terminal 12 aa], the protein stability index reads like this: under setting [1], 0.704 ± 0.018; (genetic background: wild type) 0.696 ± 0.0083.
Turning to ILGNYRDIFKQA [RGA2 C-terminal 12 aa], the protein stability index stood at 0.726 ± 0.014 under setting [1] and 0.266 ± 0.077 (genetic background: wild type).
In the case of ILISTIYAHCSS [HFD1 C-terminal 12 aa], the protein stability index came to 0.577 ± 0.0076 under setting [1] and 0.489 ± 0.015 (genetic background: wild type).
For ILLTPNNHGEMK [BDH1 C-terminal 12 aa], the protein stability index was determined as 0.689 ± 0.03 under setting [1] and 0.684 ± 0.011 (genetic background: wild type).
In turn, ILPIHQEDPANR [MEP1 C-terminal 12 aa] yielded a protein stability index under setting [1] of 0.701 ± 0.011 and a protein stability index (genetic background: wild type) of 0.686 ± 0.042.
On to ILTAEKMRGNGN [RRP4 C-terminal 12 aa], for which the protein stability index runs as follows: under setting [1], 0.686 ± 0.033; (genetic background: wild type) 0.677 ± 0.027.
On the same counts, the results for INFHSGSIFDAC [ENV11 C-terminal 12 aa] are 0.717 ± 0.029 and 0.7009 ± 0.0015.
The corresponding values for INKDMTKKKMKF [MFG1 C-terminal 12 aa] are 0.689 ± 0.029 and 0.677 ± 0.029.
For the sequence IPKIPKIVNGFK [DCS1 C-terminal 12 aa], the protein stability index under setting [1] amounted to 0.694 ± 0.012 and the protein stability index (genetic background: wild type) stood at 0.6501 ± 0.0018.
For IQAKLKISVHDI [BEM1 C-terminal 12 aa], the protein stability index is, setting by setting: under setting [1], 0.674 ± 0.0062; (genetic background: wild type) 0.681 ± 0.0069.
On the same counts, the results for IQKLNKVLEDSI [ATP5 C-terminal 12 aa] are 0.6748 ± 0.0023 and 0.675 ± 0.02.
As to IRAAGGVVELIA [RPL28 C-terminal 12 aa], the protein stability index reads like this: under setting [1], 0.658 ± 0.0023; (genetic background: wild type) 0.652 ± 0.038.
On the same counts, the results for IREFLEEIVDTQ [SUS1 C-terminal 12 aa] are 0.725 ± 0.081 and 0.728 ± 0.091.
As to ISISHSAVPNIV [YAL069W C-terminal 12 aa], the protein stability index runs as follows: under setting [1], 0.678 ± 0.0075; (genetic background: wild type) 0.729 ± 0.037.
On the same counts, the results for ISLVFLWVSIEV [CSM4 C-terminal 12 aa] are 0.157 ± 0.018 and 0.173 ± 0.011.
The corresponding values for ISVYCGTTLEVM [TFC8 C-terminal 12 aa] are 0.44 ± 0.016 and 0.469 ± 0.013.
The corresponding values for ITEVNVSLEEKL [FHL1 C-terminal 12 aa] are 0.6842 ± 0.0013 and 0.7078 ± 0.0013.
ITQARANTWLVV [YOR024W C-terminal 12 aa]: the protein stability index runs as follows: under setting [1], 0.654 ± 0.02; (genetic background: wild type) 0.648 ± 0.0088.
The corresponding values for ITRDESTATYKY [RTT101 C-terminal 12 aa] are 0.695 ± 0.0095 and 0.6686 ± 0.0022.
In the case of “ITRTRLDSFVKT [YBR072C-A C-terminal 12 aa]”, the protein stability index was 0.696 ± 0.038 under setting [1] and 0.6292 ± 0.0014 (genetic background: wild type).
The corresponding values for ITTKRSLCSSKD [PEX25 C-terminal 12 aa] are 0.673 ± 0.015 and 0.695 ± 0.02.
The corresponding values for IVTEWVKKPCLC [MUP3 C-terminal 12 aa] are 0.546 ± 0.013 and 0.489 ± 0.01.
On to “IYQPSRNRLVRY [YBR076C-A C-terminal 12 aa]”, for which the protein stability index is 0.707 ± 0.025 under setting [1] and 0.7018 ± 0.0025 (genetic background: wild type).
The corresponding values for KAFVEKLNSKKD [YBT1 C-terminal 12 aa] are 0.707 ± 0.026 and 0.683 ± 0.011.
Regarding KAIEYFEEYQCW [FRE2 C-terminal 12 aa], the protein stability index came to 0.722 ± 0.048 under setting [1] and 0.704 ± 0.052 (genetic background: wild type).
On the same counts, the results for KAQRSIWGKKSQ [ERV46 C-terminal 12 aa] are 0.6703 ± 0.0035 and 0.682 ± 0.018.
For the sequence KDDTPEDNLEDK [VBA5 C-terminal 12 aa], the protein stability index worked out at 0.6969 ± 0.0021 under setting [1] and 0.71 ± 0.0088 (genetic background: wild type).
With KDNSVGKILNST [BOP3 C-terminal 12 aa], the protein stability index stood at 0.667 ± 0.018 under setting [1] and 0.71 ± 0.026 (genetic background: wild type).
With KDSELNIKSSKL [STR3 C-terminal 12 aa], the protein stability index was 0.78159 ± 0.00043 under setting [1] and 0.79 ± 0.053 (genetic background: wild type).
The corresponding values for KEDPDLRQSYQG [MGS1 C-terminal 12 aa] are 0.693 ± 0.016 and 0.649 ± 0.0099.
The corresponding values for KEESGTTSLPTI [GGA1 C-terminal 12 aa] are 0.723 ± 0.02 and 0.704 ± 0.011.
On the same counts, the results for KESPANDQASNE [MLP2 C-terminal 12 aa] are 0.688 ± 0.0091 and 0.677 ± 0.032.
Consider KETFIQVWEKQE [SAD1 C-terminal 12 aa], for which the protein stability index came out at 0.663 ± 0.0072 under setting [1] and 0.651 ± 0.019 (genetic background: wild type).
In the case of KFFNYDGSEGVF [OSI1 C-terminal 12 aa], the protein stability index reads like this: under setting [1], 0.7095 ± 0.0039; (genetic background: wild type) 0.715 ± 0.022.
As for KGAFQKVAATSR [RPL24A C-terminal 12 aa], the protein stability index reads like this: under setting [1], 0.7102 ± 0.0065; (genetic background: wild type) 0.685 ± 0.0079.
On the same counts, the results for KGISIVESTFIS [YDR222W C-terminal 12 aa] are 0.704 ± 0.027 and 0.673 ± 0.022.
Take KGKSFILDSSKL [MDH3 C-terminal 12 aa]: the protein stability index was 0.77184 ± 0.00047 under setting [1] and 0.733 ± 0.039 (genetic background: wild type).
The corresponding values for KGLVIVKDAIIL [PFF1 C-terminal 12 aa] are 0.678 ± 0.027 and 0.697 ± 0.01.

The values above are taken from the supplement of paper PMC10724198.
